Patent EP2585123B1 (Planton GmbH, dated 2014)
Ends that are not written are not given here.

Molecular target: collagen scaffold (bovine collagen type I) (bovine, UniProt P02453 162-1217; P02465 80-1117)
Test: cell-based or functional assay

collagen scaffold (bovine collagen type I), sequence (P02453 162-1217, chain 1 of 2): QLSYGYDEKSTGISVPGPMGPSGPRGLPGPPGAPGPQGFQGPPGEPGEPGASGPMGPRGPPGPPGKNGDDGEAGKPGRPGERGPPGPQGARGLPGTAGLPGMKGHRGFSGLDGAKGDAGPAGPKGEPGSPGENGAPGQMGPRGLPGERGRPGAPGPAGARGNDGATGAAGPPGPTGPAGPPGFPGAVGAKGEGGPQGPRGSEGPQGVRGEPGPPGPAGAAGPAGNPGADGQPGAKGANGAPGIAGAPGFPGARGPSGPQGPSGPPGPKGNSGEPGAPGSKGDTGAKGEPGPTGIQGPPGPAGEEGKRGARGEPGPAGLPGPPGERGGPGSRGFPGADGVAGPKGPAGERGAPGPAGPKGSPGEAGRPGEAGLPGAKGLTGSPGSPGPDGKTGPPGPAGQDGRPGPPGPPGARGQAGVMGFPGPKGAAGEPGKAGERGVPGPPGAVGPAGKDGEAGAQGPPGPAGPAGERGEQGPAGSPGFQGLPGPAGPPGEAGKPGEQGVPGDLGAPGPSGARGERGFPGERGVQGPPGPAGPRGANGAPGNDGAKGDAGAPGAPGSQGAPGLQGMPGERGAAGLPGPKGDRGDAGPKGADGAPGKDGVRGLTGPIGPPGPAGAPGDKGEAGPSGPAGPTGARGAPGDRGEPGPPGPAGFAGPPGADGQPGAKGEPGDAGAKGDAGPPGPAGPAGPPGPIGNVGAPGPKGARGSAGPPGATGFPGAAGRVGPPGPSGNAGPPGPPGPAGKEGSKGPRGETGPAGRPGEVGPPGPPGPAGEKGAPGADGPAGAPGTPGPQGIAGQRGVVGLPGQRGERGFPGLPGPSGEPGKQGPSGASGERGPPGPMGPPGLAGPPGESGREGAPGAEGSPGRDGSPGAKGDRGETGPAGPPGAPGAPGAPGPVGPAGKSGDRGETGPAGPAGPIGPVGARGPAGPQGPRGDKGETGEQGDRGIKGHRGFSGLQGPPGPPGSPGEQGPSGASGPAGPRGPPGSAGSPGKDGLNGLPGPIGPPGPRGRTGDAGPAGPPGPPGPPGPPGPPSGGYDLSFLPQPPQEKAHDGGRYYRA
collagen scaffold (bovine collagen type I), sequence (P02465 80-1117, chain 2 of 2): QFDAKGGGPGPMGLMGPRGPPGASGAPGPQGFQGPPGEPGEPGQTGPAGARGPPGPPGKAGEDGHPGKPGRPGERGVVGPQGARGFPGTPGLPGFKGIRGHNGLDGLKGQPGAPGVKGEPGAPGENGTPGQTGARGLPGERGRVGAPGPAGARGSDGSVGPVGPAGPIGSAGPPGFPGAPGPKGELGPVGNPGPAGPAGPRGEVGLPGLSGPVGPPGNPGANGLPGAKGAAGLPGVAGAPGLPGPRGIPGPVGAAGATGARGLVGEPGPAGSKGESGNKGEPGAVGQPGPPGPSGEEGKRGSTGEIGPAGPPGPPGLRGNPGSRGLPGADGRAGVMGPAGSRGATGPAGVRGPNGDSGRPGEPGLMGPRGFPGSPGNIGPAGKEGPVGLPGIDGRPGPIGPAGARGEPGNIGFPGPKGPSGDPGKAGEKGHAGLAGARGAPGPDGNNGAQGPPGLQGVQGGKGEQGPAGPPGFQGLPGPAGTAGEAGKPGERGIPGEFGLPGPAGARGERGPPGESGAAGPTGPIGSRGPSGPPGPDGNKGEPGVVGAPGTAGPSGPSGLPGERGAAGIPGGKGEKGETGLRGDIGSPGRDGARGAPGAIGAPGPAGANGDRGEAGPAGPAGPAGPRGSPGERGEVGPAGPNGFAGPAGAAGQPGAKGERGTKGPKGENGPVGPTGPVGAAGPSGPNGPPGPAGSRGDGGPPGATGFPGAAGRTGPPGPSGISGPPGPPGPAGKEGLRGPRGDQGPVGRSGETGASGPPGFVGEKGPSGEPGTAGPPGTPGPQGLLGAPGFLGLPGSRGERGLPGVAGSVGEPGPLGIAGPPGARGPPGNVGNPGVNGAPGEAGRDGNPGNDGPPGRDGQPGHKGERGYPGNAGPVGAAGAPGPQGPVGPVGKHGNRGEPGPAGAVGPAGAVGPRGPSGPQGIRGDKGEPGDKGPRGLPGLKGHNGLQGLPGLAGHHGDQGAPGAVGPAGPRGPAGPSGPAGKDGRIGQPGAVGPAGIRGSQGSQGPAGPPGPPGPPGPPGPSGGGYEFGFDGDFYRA

hBD2 released by the collagen scaffold (agar diffusion assay, zone of inhibition, 10 µg hβD2): 40%
hBD2 retarded by the collagen scaffold (agar diffusion assay, zone of inhibition, 10 µg hβD2): 60%
Binder: GIGDPVTCLKSGAICHPVFCPRRYKQIGTCGLPGTKCCKKP (ends and bridges not checked; cysteine pairing not given here) [human β-defensin-2]
killing of the bacteria, collagen scaffold treated with 5 µg HAS, 4 µg hβD2, microdilution assay: 100%
killing rate, collagen scaffold treated with 5 µg BSA, 4 µg hβD2, microdilution assay: 98%
killing rate, collagen scaffold without gelatine (unblocked), 4 µg hβD2, microdilution assay: 86%
killing, collagen scaffold pre-treated with 10 µl of a 0.1% gelatine solution, 4 µg hβD2, microdilution assay: 94%
